# According to article PMC5599116:
# Target: recombinant human CD62L (L-selectin) full extracellular region, native 1 signal sequence construct (human)
# Assay: SPR
substance,measurement,value
mucin from porcine stomach type II (PSM-II) (natural protein),Kd,55 µM
